The results in this text go back to article PMC8885411, “Engineered ACE2 decoy mitigates lung injury and death induced by SARS-CoV-2 variants” (Nature Chemical Biology, 2022).

In this experiment the target is T1, SARS-CoV-1 S protein with C-terminal C9 tag (SARS-CoV-1 (Severe acute respiratory …, UniProt P59594)).
T1 construct: also called S protein of SARS-CoV-1; SARS-spike
The experiment in a line: flow cytometry on cells. The following applies: one partner purified.

B1: REGN10933 (antibody, V domains shown)
VH: QVQLVESGGGLVKPGGSLRLSCAASGFTFSDYYMSWIRQAPGKGLEWVSYITYSGSTIYYADSVKGRFTISRDNAKSSLYLQMNSLRAEDTAVYYCARDRGTTMVPFDYWGQGTLVTVSS
VL: DIQMTQSPSSLSASVGDRVTITCQASQDITNYLNWYQQKPGKAPKLLIYAASNLETGVPSRFSGSGSGTDFTFTISGLQPEDIATYYCQQYDNLPLTFGGGTKVEIK
notes: also called casirivimab
As for B1, the binding result was “no binding”.

B2: REGN10987 (antibody, V domains shown)
VH: QVQLVESGGGVVQPGRSLRLSCAASGFTFSNYAMYWVRQAPGKGLEWVAVISYDGSNKYYADSVKGRFTISRDNSKNTLYLQMNSLRTEDTAVYYCASGSDYGDYLLVYWGQGTLVTVSS
VL: QSALTQPASVSGSPGQSITISCTGTSSDVGGYNYVSWYQQHPGKAPKLMIYDVSKRPSGVSNRFSGSKSGNTASLTISGLQSEDEADYYCNSLTSISTWVFGGGTKLTVL
notes: also called imdevimab
As for B2, the binding result was “no binding”.
